Measurements as given in article PMC5951583 (PLoS Pathogens, 2018).
Values joined by “and” are separate entries in the source; they are usually repeats but may differ in a detail not shown here. Equal values may be shown once.

Target: HC-fragment of BoNT/DC fused to a C-terminal Streptag (HCDCS; AA 863–1285), wild-type (C. botulinum strain OFD05, UniProt A5JGM8 863-1285)
Test: SPR
Settings: both partners purified

B1: GST-rSyt-II 1–61 (domain or fragment)
chain: MRNIFKRNQEPIVAPATTTATMPLAPAAPADNSTESTGTGESQEDMFAKLKDKFFNEINKI
notes: also called GST-Syt-II 1–61; isolated Syt-II
With B1 the Kd was 1800 nM, the koff was 0.24 s⁻¹ and the kon was 230000 M⁻¹ s⁻¹.

B2: GST-rSyt-II 1–90 (domain or fragment)
chain: MRNIFKRNQEPIVAPATTTATMPLAPAAPADNSTESTGTGESQEDMFAKLKDKFFNEINKIPLPPWALIAMAVVAGLLLLTCCFCICKKC
notes: also called GST-Syt-II 1–90; Syt-II with its TMD
In the case of B2, the koff is reported as 0.49 s⁻¹ and 0.63 s⁻¹.
